Measurements published in US20240043537A1 (MacroGenics, published 2024).

T1: 5T4 on A498 cells (UniProt Q13641 32-420, limits assumed)
T1 construct: whole, on cells; also called 5T4-expressing A498 cells; A-498 kidney carcinoma (5T4)
T1 sequence (looked up): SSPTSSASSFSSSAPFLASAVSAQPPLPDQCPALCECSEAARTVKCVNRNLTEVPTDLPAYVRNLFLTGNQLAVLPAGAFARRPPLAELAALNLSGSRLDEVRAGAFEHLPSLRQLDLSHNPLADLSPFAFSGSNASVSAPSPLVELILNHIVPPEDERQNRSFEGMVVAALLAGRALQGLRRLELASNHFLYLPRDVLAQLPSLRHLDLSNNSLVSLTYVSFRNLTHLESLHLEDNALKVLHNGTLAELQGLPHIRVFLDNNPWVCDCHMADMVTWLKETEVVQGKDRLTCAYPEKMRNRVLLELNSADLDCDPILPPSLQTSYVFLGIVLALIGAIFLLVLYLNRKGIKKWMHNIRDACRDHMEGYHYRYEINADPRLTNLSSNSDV

B1: T-CD123-WT (other)
chain 1: DFVMTQSPDSLAVSLGERVTMSCKSSQSLLNSGNQKNYLTWYQQKPGQPPKLLIYWASTRESGVPDRFSGSGSGTDFTLTISSLQAEDVAVYYCQNDYSYPYTFGQGTKLEIKGGGSGGGGEVQLVESGGGLVQPGGSLRLSCAASGFTFSTYAMNWVRQAPGKGLEWVGRIRSKYNNYATYYADSVKDRFTISRDDSKNSLYLQMNSLKTEDTAVYYCVRHGNFGNSYVSWFAYWGQGTLVTVSSGGCGGGEVAALEKEVAALEKEVAALEKEVAALEKGGGDKTHTCPPCPAPEAAGGPSVFLFPPKPKDTLMISRTPEVTCVVVDVSHEDPEVKFNWYVDGVEVHNAKTKPREEQYNSTYRVVSVLTVLHQDWLNGKEYKCKVSNKALPAPIEKTISKAKGQPREPQVYTLPPSREEMTKNQVSLWCLVKGFYPSDIAVEWESNGQPENNYKTTPPVLDSDGSFFLYSKLTVDKSRWQQGNVFSCSVMHEALHNHYTQKSLSLSPGK
chain 2: QAVVTQEPSLTVSPGGTVTLTCRSSTGAVTTSNYANWVQQKPGQAPRGLIGGTNKRAPWTPARFSGSLLGGKAALTITGAQAEDEADYYCALWYSNLWVFGGGTKLTVLGGGGSGGGGEVQLVQSGAELKKPGASVKVSCKASGYTFTDYYMKWVRQAPGQGLEWIGDIIPSNGATFYNQKFKGRVTITVDKSTSTAYMELSSLRSEDTAVYYCARSHLLRASWFAYWGQGTLVTVSSGGCGGGKVAALKEKVAALKEKVAALKEKVAALKE
heavy: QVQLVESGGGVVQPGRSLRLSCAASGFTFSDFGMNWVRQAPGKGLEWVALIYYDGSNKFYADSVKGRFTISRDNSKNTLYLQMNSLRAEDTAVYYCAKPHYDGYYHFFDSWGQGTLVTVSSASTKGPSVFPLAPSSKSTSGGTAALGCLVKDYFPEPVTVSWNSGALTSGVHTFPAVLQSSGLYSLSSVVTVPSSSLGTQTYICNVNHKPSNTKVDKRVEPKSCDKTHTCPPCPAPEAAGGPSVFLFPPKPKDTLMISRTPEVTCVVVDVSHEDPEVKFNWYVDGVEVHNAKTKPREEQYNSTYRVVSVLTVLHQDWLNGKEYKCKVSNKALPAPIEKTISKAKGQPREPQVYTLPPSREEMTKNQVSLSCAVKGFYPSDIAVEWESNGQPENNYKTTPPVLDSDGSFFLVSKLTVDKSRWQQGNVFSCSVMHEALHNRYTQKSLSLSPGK
light: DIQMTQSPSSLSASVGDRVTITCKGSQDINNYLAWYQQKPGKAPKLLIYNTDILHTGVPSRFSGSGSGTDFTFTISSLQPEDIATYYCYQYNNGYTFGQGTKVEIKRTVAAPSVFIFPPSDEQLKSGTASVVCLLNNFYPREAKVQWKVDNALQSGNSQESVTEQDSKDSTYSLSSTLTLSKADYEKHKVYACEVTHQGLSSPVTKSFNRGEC
notes: Four-chain trivalent CD123 x CD3 x CD8 molecule with Fc; also called CD123 mAb 1 x CD3 mAb 1 x TRX2 TRIVALENT-type molecule
B2: T-CD123-M1 (other)
chain 1: DFVMTQSPDSLAVSLGERVTMSCKSSQSLLNSGNQKNYLTWYQQKPGQPPKLLIYWASTRESGVPDRFSGSGSGTDFTLTISSLQAEDVAVYYCQNDYSYPYTFGQGTKLEIKGGGSGGGGEVQLVESGGGLVQPGGSLRLSCAASGFTFSTYAMNWVRQAPGKGLEWVGRIRSKYNNYATYYADSVKDRFTISRDDSKNSLYLQMNSLKTEDTAVYYCVRHGNFGNSYVTWFAYWGQGTLVTVSSGGCGGGEVAALEKEVAALEKEVAALEKEVAALEKGGGDKTHTCPPCPAPEAAGGPSVFLFPPKPKDTLMISRTPEVTCVVVDVSHEDPEVKFNWYVDGVEVHNAKTKPREEQYNSTYRVVSVLTVLHQDWLNGKEYKCKVSNKALPAPIEKTISKAKGQPREPQVYTLPPSREEMTKNQVSLWCLVKGFYPSDIAVEWESNGQPENNYKTTPPVLDSDGSFFLYSKLTVDKSRWQQGNVFSCSVMHEALHNHYTQKSLSLSPGK
chain 2: QAVVTQEPSLTVSPGGTVTLTCRSSTGAVTTSNYANWVQQKPGQAPRGLIGGTNKRAPWTPARFSGSLLGGKAALTITGAQAEDEADYYCALWYSNLWVFGGGTKLTVLGGGGSGGGGEVQLVQSGAELKKPGASVKVSCKASGYTFTDYYMKWVRQAPGQGLEWIGDIIPSNGATFYNQKFKGRVTITVDKSTSTAYMELSSLRSEDTAVYYCARSHLLRASWFAYWGQGTLVTVSSGGCGGGKVAALKEKVAALKEKVAALKEKVAALKE
heavy: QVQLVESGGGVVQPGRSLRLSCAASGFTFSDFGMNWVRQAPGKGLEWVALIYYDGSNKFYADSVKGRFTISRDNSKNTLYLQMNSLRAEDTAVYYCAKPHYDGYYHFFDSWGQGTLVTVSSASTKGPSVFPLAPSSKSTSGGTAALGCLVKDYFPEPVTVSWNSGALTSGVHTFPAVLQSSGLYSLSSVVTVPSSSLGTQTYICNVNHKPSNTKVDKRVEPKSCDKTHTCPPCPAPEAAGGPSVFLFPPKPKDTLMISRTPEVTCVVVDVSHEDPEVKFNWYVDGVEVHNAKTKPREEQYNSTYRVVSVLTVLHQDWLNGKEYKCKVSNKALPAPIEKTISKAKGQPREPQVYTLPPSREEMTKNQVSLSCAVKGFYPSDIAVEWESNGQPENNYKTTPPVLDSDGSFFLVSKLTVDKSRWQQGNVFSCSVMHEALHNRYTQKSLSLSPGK
light: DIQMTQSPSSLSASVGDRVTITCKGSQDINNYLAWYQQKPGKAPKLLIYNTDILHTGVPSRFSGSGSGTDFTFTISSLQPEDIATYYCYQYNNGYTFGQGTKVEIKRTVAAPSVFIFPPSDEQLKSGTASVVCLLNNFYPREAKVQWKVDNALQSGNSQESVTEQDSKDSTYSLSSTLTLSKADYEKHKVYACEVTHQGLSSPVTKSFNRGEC
notes: Four-chain trivalent CD123 x CD3 x CD8 molecule with Fc; also called CD123 mAb 1 x CD3 mAb 1 M1 x TRX2 TRIVALENT-type molecule
B3: T-CD123-M2 (other)
chain 1: DFVMTQSPDSLAVSLGERVTMSCKSSQSLLNSGNQKNYLTWYQQKPGQPPKLLIYWASTRESGVPDRFSGSGSGTDFTLTISSLQAEDVAVYYCQNDYSYPYTFGQGTKLEIKGGGSGGGGEVQLVESGGGLVQPGGSLRLSCAASGFTFSTYAMNWVRQAPGKGLEWVGRIRSKYNNYATYYADSVKDRFTISRDDSKNSLYLQMNSLKTEDTAVYYCVRHKNFGNSYVTWFAYWGQGTLVTVSSGGCGGGEVAALEKEVAALEKEVAALEKEVAALEKGGGDKTHTCPPCPAPEAAGGPSVFLFPPKPKDTLMISRTPEVTCVVVDVSHEDPEVKFNWYVDGVEVHNAKTKPREEQYNSTYRVVSVLTVLHQDWLNGKEYKCKVSNKALPAPIEKTISKAKGQPREPQVYTLPPSREEMTKNQVSLWCLVKGFYPSDIAVEWESNGQPENNYKTTPPVLDSDGSFFLYSKLTVDKSRWQQGNVFSCSVMHEALHNHYTQKSLSLSPGK
chain 2: QAVVTQEPSLTVSPGGTVTLTCRSSTGAVTTSNYANWVQQKPGQAPRGLIGGTNKRAPWTPARFSGSLLGGKAALTITGAQAEDEADYYCALWYSNLWVFGGGTKLTVLGGGGSGGGGEVQLVQSGAELKKPGASVKVSCKASGYTFTDYYMKWVRQAPGQGLEWIGDIIPSNGATFYNQKFKGRVTITVDKSTSTAYMELSSLRSEDTAVYYCARSHLLRASWFAYWGQGTLVTVSSGGCGGGKVAALKEKVAALKEKVAALKEKVAALKE
heavy: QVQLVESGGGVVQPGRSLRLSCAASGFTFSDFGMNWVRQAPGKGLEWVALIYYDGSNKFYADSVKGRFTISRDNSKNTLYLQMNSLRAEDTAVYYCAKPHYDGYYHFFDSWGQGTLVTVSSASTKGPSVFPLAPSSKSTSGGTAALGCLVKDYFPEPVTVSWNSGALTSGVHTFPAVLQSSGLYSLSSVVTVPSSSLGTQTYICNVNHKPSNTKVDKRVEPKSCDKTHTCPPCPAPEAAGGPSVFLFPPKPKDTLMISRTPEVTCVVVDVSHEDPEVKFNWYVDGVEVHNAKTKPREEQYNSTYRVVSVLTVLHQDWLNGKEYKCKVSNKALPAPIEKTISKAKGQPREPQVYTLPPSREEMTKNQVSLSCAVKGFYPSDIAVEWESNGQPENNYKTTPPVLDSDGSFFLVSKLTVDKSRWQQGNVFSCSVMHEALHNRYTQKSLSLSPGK
light: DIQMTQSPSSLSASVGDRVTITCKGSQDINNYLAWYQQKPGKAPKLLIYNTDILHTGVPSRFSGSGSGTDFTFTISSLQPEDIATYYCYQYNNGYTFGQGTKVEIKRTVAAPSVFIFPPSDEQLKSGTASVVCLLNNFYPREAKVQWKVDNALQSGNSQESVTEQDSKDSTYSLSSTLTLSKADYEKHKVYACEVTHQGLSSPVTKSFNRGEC
notes: Four-chain trivalent CD123 x CD3 x CD8 molecule with Fc; also called CD123 mAb 1 x CD3 mAb 1 M2 x TRX2 TRIVALENT-type molecule
B4: T-CD123-M18 (other)
chain 1: DFVMTQSPDSLAVSLGERVTMSCKSSQSLLNSGNQKNYLTWYQQKPGQPPKLLIYWASTRESGVPDRFSGSGSGTDFTLTISSLQAEDVAVYYCQNDYSYPYTFGQGTKLEIKGGGSGGGGEVQLVESGGGLVQPGGSLRLSCAASGFTFSTYGMNWVRQAPGKGLEWVGRIRSKYNNYATYYADSVKDRFTISRDDSKNSLYLQMNSLKTEDTAVYYCVRHGNFGNSYVSWFAYWGQGTLVTVSSGGCGGGEVAALEKEVAALEKEVAALEKEVAALEKGGGDKTHTCPPCPAPEAAGGPSVFLFPPKPKDTLMISRTPEVTCVVVDVSHEDPEVKFNWYVDGVEVHNAKTKPREEQYNSTYRVVSVLTVLHQDWLNGKEYKCKVSNKALPAPIEKTISKAKGQPREPQVYTLPPSREEMTKNQVSLWCLVKGFYPSDIAVEWESNGQPENNYKTTPPVLDSDGSFFLYSKLTVDKSRWQQGNVFSCSVMHEALHNHYTQKSLSLSPGK
chain 2: QAVVTQEPSLTVSPGGTVTLTCRSSTGAVTTSNYANWVQQKPGQAPRGLIGGTNKRAPWTPARFSGSLLGGKAALTITGAQAEDEADYYCALWYSNLWVFGGGTKLTVLGGGGSGGGGEVQLVQSGAELKKPGASVKVSCKASGYTFTDYYMKWVRQAPGQGLEWIGDIIPSNGATFYNQKFKGRVTITVDKSTSTAYMELSSLRSEDTAVYYCARSHLLRASWFAYWGQGTLVTVSSGGCGGGKVAALKEKVAALKEKVAALKEKVAALKE
heavy: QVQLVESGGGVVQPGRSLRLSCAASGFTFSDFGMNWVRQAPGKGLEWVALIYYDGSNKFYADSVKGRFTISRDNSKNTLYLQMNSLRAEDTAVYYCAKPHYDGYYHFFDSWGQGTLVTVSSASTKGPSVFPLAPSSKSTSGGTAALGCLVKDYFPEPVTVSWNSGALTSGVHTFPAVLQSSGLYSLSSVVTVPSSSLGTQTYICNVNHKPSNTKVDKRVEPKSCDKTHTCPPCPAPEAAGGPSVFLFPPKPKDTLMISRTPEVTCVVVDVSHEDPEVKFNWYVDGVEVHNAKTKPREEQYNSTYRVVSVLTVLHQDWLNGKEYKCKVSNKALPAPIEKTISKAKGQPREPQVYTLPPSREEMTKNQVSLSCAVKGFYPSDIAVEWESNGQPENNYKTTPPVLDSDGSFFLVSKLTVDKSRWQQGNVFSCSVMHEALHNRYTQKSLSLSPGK
light: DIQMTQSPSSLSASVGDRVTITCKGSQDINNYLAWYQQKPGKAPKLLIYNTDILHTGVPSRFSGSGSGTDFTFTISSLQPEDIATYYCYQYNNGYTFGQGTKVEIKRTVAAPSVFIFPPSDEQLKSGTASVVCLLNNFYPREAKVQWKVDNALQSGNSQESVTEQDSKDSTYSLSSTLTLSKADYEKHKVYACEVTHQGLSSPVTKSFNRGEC
notes: Four-chain trivalent CD123 x CD3 x CD8 molecule with Fc; also called CD123 mAb 1 x CD3 mAb 1 M18 x TRX2 TRIVALENT-type molecule
B5: 5T4-M18 (bispecific antibody)
chain 1: DIQMTQSPSSLSASVGDRVTITCRASQGISNYLAWFQQKPGKAPKSLIYRANRLQSGVPSRFSGSGSGTDFTLTISSLQPEDVATYYCLQYDDFPWTFGQGTKLEIKGGGSGGGGEVQLVESGGGLVQPGGSLRLSCAASGFTFSTYGMNWVRQAPGKGLEWVGRIRSKYNNYATYYADSVKDRFTISRDDSKNSLYLQMNSLKTEDTAVYYCVRHGNFGNSYVSWFAYWGQGTLVTVSSGGCGGGEVAALEKEVAALEKEVAALEKEVAALEKGGGDKTHTCPPCPAPEAAGGPSVFLFPPKPKDTLMISRTPEVTCVVVDVSHEDPEVKFNWYVDGVEVHNAKTKPREEQYNSTYRVVSVLTVLHQDWLNGKEYKCKVSNKALPAPIEKTISKAKGQPREPQVYTLPPSREEMTKNQVSLWCLVKGFYPSDIAVEWESNGQPENNYKTTPPVLDSDGSFFLYSKLTVDKSRWQQGNVFSCSVMHEALHNHYTQKSLSLSPGK
chain 2: QAVVTQEPSLTVSPGGTVTLTCRSSTGAVTTSNYANWVQQKPGQAPRGLIGGTNKRAPWTPARFSGSLLGGKAALTITGAQAEDEADYYCALWYSNLWVFGGGTKLTVLGGGGSGGGGQVQLVQSGAEVKKPGASVKVSCKASGYTFTSFWMHWVRQAPGQGLEWMGRIDPNRGGTEYNEKAKSRVTMTADKSTSTAYMELSSLRSEDTAVYYCAGGNPYYPMDYWGQGTTVTVSSGGCGGGKVAALKEKVAALKEKVAALKEKVAALKE
chain 3: not shown
notes: Three-chain diabody with Fc; also called 5T4 x CD3 mAb 1 M18 DART-B-type diabody

What was measured:
[1] = biological target: T2, CD123 on MOLM-13 cells (UniProt P26951 19-378, limits assumed); test: flow cytometry on CD123-expressing MOLM-13 cells, MFI (geo mean) against concentration (nM)
T2 construct: whole, on cells; also called CD123-expressing MOLM-13 cells

[2] = biological target: soluble human CD3 (human, UniProt P07766 23-126); test: SPR (BIAcore), diabody over immobilized human CD3
Description: The ability of the CD123-binding diabodies: CD123-WT, CD123-M1, CD123-M2 and CD123-M18 to bind to human CD3 and CD123 was also evaluated using BIAcore®. […] Table 14 presents the calculated kₐ, kd and KD from these studies.
The ability of the 5T4-binding diabodies: 5T4-WT, 5T4-M1, 5T4-M2 and 5T4-M18 to bind to CD3 was also evaluated using BIAcore®, as described above. Table 15A presents the calculated kₐ, kd and KD.

[3] = biological target: T1, 5T4 on A498 cells; test: Flow cytometry on A498 cells; detection with biotinylated anti-E/K-coil antibody and streptavidin-PE
Description: FIG. 9A-9B show the ability of DART-B-type diabodies to bind to Disease Antigens. […] Binding was detected using biotinylated antibody specific for the diabodies' E/K coils and streptavidin-phycoerythrin (PE).
The ability of such diabodies to bind to their respective Disease Antigen (i.e., CD123 or 5T4) on the surface of MOLM-13 leukemia (CD123) or A-498 kidney carcinoma (5T4) target cancer cells was assessed using FACS. Briefly, cells were incubated with the diabody molecules (in FACS buffer containing 10% human AB serum) in microtiter plates. The cells were washed and incubated with biotin-conjugated mouse anti-EK-coil antibody that recognizes the E-coil/K-coil (EK) Heterodimer-Promoting Domain of the diabodies mixed with streptavidin-phycoerythrin.

Sequence of soluble human CD3 (P07766 23-126): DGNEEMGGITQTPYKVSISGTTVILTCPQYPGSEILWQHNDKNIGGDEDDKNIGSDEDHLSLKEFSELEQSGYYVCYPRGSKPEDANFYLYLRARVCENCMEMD
T2 sequence (P26951 19-378 limits assumed): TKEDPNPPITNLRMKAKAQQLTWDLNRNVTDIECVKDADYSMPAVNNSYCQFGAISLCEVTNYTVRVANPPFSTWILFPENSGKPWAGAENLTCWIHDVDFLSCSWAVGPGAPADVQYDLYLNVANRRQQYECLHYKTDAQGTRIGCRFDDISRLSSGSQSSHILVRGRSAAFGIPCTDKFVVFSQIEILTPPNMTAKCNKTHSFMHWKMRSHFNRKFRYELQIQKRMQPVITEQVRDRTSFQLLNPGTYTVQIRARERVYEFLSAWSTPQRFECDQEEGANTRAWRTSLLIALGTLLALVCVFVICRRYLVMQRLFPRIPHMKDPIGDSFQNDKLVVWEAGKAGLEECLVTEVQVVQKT

Row | Binder | binding result [1] | further results
1 | B1 | binds | –
2 | B2 | binds | –
3 | B3 | binds | –
4 | B4 | binds | –
5 | B5 | – | Kd [2]: 453 nM; koff [2]: 0.034 s⁻¹; kon [2]: 75000 M⁻¹ s⁻¹; EC50 (read off the curve) [3]: ~1 nM
